{"source": "the DeepSol protein solubility set", "data": [{"assay": "soluble on expression in E. coli; label from the status in PepcDB or PDB records", "values": [{"sequence": "MGSDKIHHHHHHMLVGREKELHLLHDIQNDDSSHFVAVYGRMREGKTFLIREAFGYRFTFQHAGLSEGGMKEQIYAFTSSLKDAGYEVKKQPQNWLEAFEALKDVIRLSSEKKKIIFIDELSWMDTQKSDLMVALENFWNGFASARKDIVLIVCASATSWMLSKVVHNKGGLYNRLTEQIHLRTFCLRECEAYVKAAGLALNRNQILQYYMIFGGVPYYWGFLKKGLSLSQNIDSILFEKDAPLRDEFKYLYASVFKKPENYVKIIEALGTKKVGMTREEIITSTKIPNSGDLTTKLEELESCGFIRKYNAFGMKKKNAIYQLMDCFTLFYFKFLKSEPTDEHFWTNQINTPAVNTWLGLAFERVCMEHVDQIKFKLGISGVLTEINSWYCKSDPDNGIFGSQIDMLIARKDQVINLCEMKYSQSEYTITEKVDRSIRNKISDLRVVSGTKYAIYPTLITTYGVVENSYSQELQSVVTMDDLFA", "soluble on expression in E. coli": "not soluble"}, {"sequence": "MGSDKIHHHHHHMTDERIHILRDILLELHNGASPESVQDRFDATFTGVSAIEISLMEHELMNSDSGVTFEDVMELCDVHANLFKNAIKGVEVSDTEHPGHPVRVFKEENLALRAALIRIRRLLDTYESMEDEEMLAEMRKGLVRQMGLVGQFDIHYQRKEELFFPIMERYGHDSPPKVMWGVDDQIRELFQTALTTAKSLPEVSISSVKEAFEAFATEFESMIFKEESILLMILLESFTQDDWLQIAEESDAYGYAIIRPSEKWVPERQSFIEEKIAEEPVQLDTAEGQVQQVIDTPEGHFTITFTPKEKEAVLDRHSQQAFGNGYLSVEQANLILNHLPMEITFVNKEDIFQYYNDNTPADEMIFKRTPSQVGRNVELCHPPKYLDKVKTIMKGLREGSKDKYEMWFKSESRGKFVHITYAAVHDEDGEFQGVLEYVQDIQPYREIDTDYFRGLE", "soluble on expression in E. coli": "not soluble"}, {"sequence": "MGSDKIHHHHHHMWPNPALDTITHQWAQVFTNGGGLASLTDMIEQDVVVVGGGMVGAALAAGLGRAGLSVTVLENHMPQAFEASQPLDVRVSALSVASEALLERLDAWAGILSRRAVPYLGLETWEIESCITRFHASQIGADHLGHIVENRVVQLALWDLLSTLDSVTVKAPVNVMGFERLVDEDAICVALDSGERIKAKLLVGADGANSQVRAFAHIGVTGWDYAQSAMLINIATACEQQDVTWQQFTPQGPRSLLPLPGKNASLVWYDDASTIARLAKLNPNELADSIRAHFPARLDRDFRVLDKGHFKLTRRHAQRYFDANLVLIGDAAHTINPLAGQGVNLGFKDVDVLLDEIVSAVKKGENWHTKSVLERYQQRRWRDNQLMMSTMDAFYASFSNDLLPVKLLRNAALRLANVDGPIKRQVLKYAMGLK", "soluble on expression in E. coli": "not soluble"}, {"sequence": "FDAVPDLIAILDTEYRIVRANRAMAARLGITPEECVGLTCYRVIHGTDEPPSFCPYRQLLKDGIEHTEEVREDSLGGDFILSVLPLHDSKGKIIGCTHFARDIN", "soluble on expression in E. coli": "not soluble"}, {"sequence": "MSLLDFSAHALPYASQRSPVHARRGMVATSQPQAAQVGLEILRRGGNAIDAAIATAAALTVVEPTGCGIGGDAFALVWTRGRLHGLDASGRAPGLLDRERVRAAGHERMPLYGWTPVTVPGCPAAWGELSRRFGKLPFEQLLRPAIELARDGFPVSPVIARLWQSGLDKFRAALPQRPELRAWFDEFLIDGRAPRAGEVFRQPGQADTLDELARSQCESFYRGELARAIVGHAECSGGYLRAEDLAGYQAKWVEPISLNYRGYDVWEIPPSGQGLIALMTLNILKGFEFGERDCARTWHRQLEAMKLAYVDGLHYISQPQSMRVSVEELLHEDYAASRRALIGERALDPSPGQPRPGGTVYLACGDEEGNLVSFIQSNYHGFGSGVVVPGTGIALQNRGAEFSLDPDHVNCLEPGKQTFHTIIPGFLSKDGVPLGPFGVMGAYMQPQGHVQMVMNLVDFGLNPQAALDAPRWQWLGGLRVGIEHAAPRALAAELAQRGHQVEIAYDSTSYGRGQIVLRDPASGVLCGGTEPRTDSQIAVWEGHHHHHH", "soluble on expression in E. coli": "not soluble"}, {"sequence": "MAHHHHHHMGCVNCKKAKRRKDHPTLEEAAARETERERWAAAEQGFAAQNLYTSVHAANSLPLTEREGATPLPATPGRLENVPQISAAAAAPGETENGRGWNSKKKSNSQATGKADNDSTAAALARVTRTAAPSESSRETPKGRRNKHQYRCHPGVSSWSDGSLPLSVDSVGSAKCPHSSSSSSSSSAQTYKSKKGAEDAKKHGSPGSITAAEIWPQENSDDSVAQGHLNSASHSQTATAWLHINGLTAAGTTSSTNARQTRQPKMYHRSSNVSSDSRSNATPPGMETKVYPSADALDDGPSDWGSTSHDVPAAIPAPNTSVESGGAAAEASSLPNRAPFEPYSDLGSRDVTDYLPPYEWAPRTLPVPSPLRACGPVDMAQWEDGENQFCGLAAAGTTARFQDPVVNVSAEGATTSNSAVAEGNYGASHPFALHTFYPRLPPAQWSSSSSDDTINGPEASAAAFDYPHLPVNAFIQKAHPHQQQPTYRAMYEGDASVRYSPAGYASHEATPRRAVPPSLVDVHVSEAVGYASPPLVNNAHSFYPSRALLPMHHSHAVPDSGSGKPMAYSHALPAMTTSAPQIYHDGNRNRSGNISIVSIGGGVHPHKPVSYLFDSSMDDWLQSRHAQPPQRQLYGESVDMW", "soluble on expression in E. coli": "soluble"}, {"sequence": "TLTIDDGNIEIVGTGVKGKLPTVWLQYGQVNLKASGGNGKYTWRSANPAIASVDASSGQVTLKEKGTTTISVISSDNQTATYTIATPNSLIVPNMSKRVTYNDAVNTCKNFGGKLPSSQNELENVFKAWGAANKYEYYKSSQTIISWVQQTAQDAKSGVASTYDLVKQNPLNNIKASESNAYATCVK", "soluble on expression in E. coli": "soluble"}, {"sequence": "MRTFDDMLSKQLQDEEFKKEYDAIQPEMDVIRAIVDARTSQNMTQKELAERTGINQADISKLENGTRNPSVNLLKRLADAEMVLVRGSKDNVKPTQND", "soluble on expression in E. coli": "not soluble"}, {"sequence": "DCLLPIVAAPMAGGPTTVALAQAVSGVGGFPFLAGGYKSVEALATEIAVLRASGGNFGVNLFVPSPDMVDAEAFRIYAAKLQSEALPYGLRLDPLPVMGDDDGWPDKLALLLNDPVPVVSFTFGLPAVRDIAALRCAGSRVLASVTLPAEAQAAMEAGVDGLVVQGPDAGGHSATYDPGRPFTPLKTVSLVRRVCAVSSLPVIAAGGVDGPVMVRALLQAGAAAVAIGTLLLRTKESGATQVHKDALANPAYTETVITHAFTGRPARTLRNGFVNRYHASAPLGYPAIHHLTRPLRQAAASAGDADVLHLWAGTGYRQAMDGSAVDVIQ", "soluble on expression in E. coli": "not soluble"}, {"sequence": "MKTLVHLSDLHFGKTESHLVDAIAAEVRAVDSDLLVVSGDLTQRARKDEFLQARAFLDSLPGPRIVVPGNHDVPLWNVFARAMTPLSRYRRYIEADTDPFYADSEVAVVGINTARSLTIKNGRINVRQLKAATEKFAYMSDDITRIVVTHHPFEGLDLESDDGIVARADLAMDAFSRSGVDIILSGHQHLHRAGSSARRYLIDGYAALLVQAGTAVSSRVRQAANSFNIIRIEHPRISIECRAWQSLQSGFETSASYSFRQGSGGWEPALEHHHHHH", "soluble on expression in E. coli": "not soluble"}, {"sequence": "MIPMNVTFEHDFQTMRESFFENAQEAFAILDKDLNFIDINKSFTESLKTGRDKLIGKNIIEFNSSIKNTERFRLYQKVLQTGESIILDDIRLHPNLGSYTIRVSCFKVGEGIGLAILNITDLRDAIDDLETFIYKCSHDMRTPVSNIYGLIQLALEDTKDPHTVEFLNMIKHQTDRLDHIIHQLANTSRLMHDNKIIYLVDLKTVVSDVIDSFSKIPDFEAIKFTVTSSSKEKFFSDKSLLICILENIIDNAIKYRNHDIQSLIDINMSDEKSGVRITIKDNGIGIDDDIQKNVFKMFYRGTNKSSGSGLGLYTVKHFIKKLKGEISLTSEKNTGTTFSFYIPNVNTDK", "soluble on expression in E. coli": "not soluble"}, {"sequence": "QVQLVESGGGTVPAGGSLRLSCAASGNTLCTYDMSWYRRAPGKGRDFVSGIDNDGTTTYVDSVAGRFTISQGNAKNTAYLQMDSLKPDDTAMYYCKPSLRYGLPGCPIIPWGQGTQVTVSS", "soluble on expression in E. coli": "soluble"}, {"sequence": "GMSDHVCQEGCRHHSHGEDSPEIQQEFQEGRRDFMRDFAVGGVLASAASLGISSSAFGQTMPKTGLTSGHATHYYIPASDKTVSWGFFSKSLKPVVELESGDFATIETLTHHSNDDASLMVKGDPGAESVFYWDSKRKNVDRRGMGPMDHKLGAGGGMGVHILTGPVAIKGAEPGDVLEVRIVDVALRPSANPEFKGKTFGSNVAANWGFHYNELIEEPKKREVVTIYELDATGERNWARAFYNYRWTPQKDPFGVVHPIVDYPGVPVDHSTISKNYNVLKNIRVPVRPHFGTMGLAPKEADLVNSVPPSHFGGNIDNWRIGKGATMYYPVSVAGGLFSVGDPHASQGDSEMCGTAIECSLTGTFQFILHKKADLPGTPLADLQYPLLETQDEWVLHGFSYANYLAELGPDAQNSIFSKSSLDLALKDAFRKMRHFLMQTQNLTEDEAVSLMSIGVDFGITQVVDGNWGVHAVVKKGIFPGRDV", "soluble on expression in E. coli": "soluble"}, {"sequence": "MLTYGAPFNFPRWIDEHAHLLKPPVGNRQVWQDSDFIVTVVGGPNHRTDYHDDPLEEFFYQLRGNAYLNLWVDGRRERADLKEGDIFLLPPHVRHSPQRPEAGSACLVIERQRPAGMLDGFEWYCDACGHLVHRVEVQLKSIVTDLPPLFESFYASEDKRRCPHCGQVHPGRAA", "soluble on expression in E. coli": "soluble"}, {"sequence": "MSLYMTIGRIFDLSVGKYPNKEALVEPEKNIRWTYKQWDEQINKTAHALLEEGVRKGDTVSVYLYNCHEFVNVYLACAKIGAIFNPINFRLKAKEVSYILQDASSKVVVFEKAVESTVAIIERDFPNTSFWSIENDKPSYASSYHEKVNEASSEKVNIEIDEMDYCSMLYTSGTTGHPKGVLHRHREMAEHSMICTYFLKYNRDSVGLVVAPLYHCGELNAGIIPRIQVGGKNVILHHFDTETVLHTIQEEKITTFFAAPTMWNMLLQKDLAQYDLTSMKIGIYGGAAMAPALVKECKERLYIDLVQIYGMTEMGPVVAFLVEEDQITKAGSAGTPCFSHEVRIVKPNEDAPAEPDDVLPPYEVGEIILRGPTMMAGYHNREEANKKSMYKGWYHSGDLGYFDKDGYLFVADRVDDMVISGGVNIYPREIEDFLHSHPGILDVAVLGEPDELWGERVVAVIVKKDETITEADLETYCKESDELADYKRPRHYLFVDELPRNASGKLQKFVLRESLKGAKEGHHHHHH", "soluble on expression in E. coli": "soluble"}, {"sequence": "QESSGNKIHFINVQEGGSDAIILESNGHFAMVDTGEDYDFPDGSDSRYPWREGIETSYKHVLTDRVFRRLKELSVQKLDFILVTHTHSDHIGNVDELLSTYPVDRVYLKKYSDSRITNSERLWDNLYGYDKVLQTATETGVSVIQNITQGDAHFQFGDMDIQLYNYENETDSSGELKKIWDDNSNSLISVVKVNGKKIYLGGDLDNVHGAEDKYGPLIGKVDLMKFNHHHDTNKSNTKDFIKNLSPSLIVQTSDSLPWKNGVDSEYVNWLKERGIERINAASKDYDATVFDIRKDGFVNISTSYKPIPSFQAGWHKSAYGNWWYQAPDSTGEYAVGWNEIEGEWYYFNQTGILLQNQWKKWNNHWFYLTDSGASAKNWKKIDGIWYYFNKENQMEIGWVQDKEQWYYLDVDGSMKTGWLQYMGQWYYFAPSGEMKMGWVKDKETWYYMDSTGVMKTGEIEVAGQHYYLEDSGAMKQGWHKKANDWYFYKTDGSRAVGWIKDKDKWYFLKENGQLLVNGKTPEGYTVDSSGAWLVDVSIEKSATIKTT", "soluble on expression in E. coli": "soluble"}, {"sequence": "MGSDKIHHHHHHMLIDEEITLKKLETFLAFMRTGNLARAAAELGTSNVSVHRAIHSLESALRCPLFKHEGRNLTPLESAYVLEERAQKLVQEVLDTVRLTREAAGFSAERFKLGALYSLTVKTVPQLIMGLKLRRSALNIDLILGSNVDLFYQLKNMELDAILVSLNDSVSDPDCEHLPLFSDDIFLAVPVDSPYARLAEIDLSTLRDTPFVTLTQGFATHQDGTRVFQQAGFEPQIAMQVNDIFTLLSMVSSGVGHALLPKRIEAVYENRVRLIPLQPRYRLQQHIGVVFLKAKERDPNLLALLAECRMYSLRLEQEAAG", "soluble on expression in E. coli": "not soluble"}]}]}
